# Results published in US20250051435A1 (INVETX, published 2025).
# B1: murine anti-feline IL-5 antibody clone 154 (antibody, V domains shown)
# VH: EVQLVESGGDLVKPGGSLKLSCAASGFTFSNYAMSWVRQTPDKRLEWVATIGSGGHYTYHPDSVKGRFSISRDNAKNTLSLQMSSLKSEDTAMYYCTRETDGYDGMDYWGQGTSVTVSS
# VL: DIVMTQSPATLSVTPGDRVSLSCRASQSISDYLYWYQQKSHESPRLLIKYASQSISGIPARFSGSGSGSDFTLSINSVEPEDVGVYYCQNGHSFPYTFGGGTKLEIK
# notes: also called murine antibody 154
# Target: T1, feline IL-5 (Kingfisher Biotech; RP1152F) (feline, UniProt O77515 20-134)
# T1 construct: Bought recombinant protein; also called fIL-5; fIL5
# T1 sequence (looked up): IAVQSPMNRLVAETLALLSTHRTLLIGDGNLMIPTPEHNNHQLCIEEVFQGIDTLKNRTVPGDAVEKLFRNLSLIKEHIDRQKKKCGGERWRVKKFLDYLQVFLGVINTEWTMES
# Experiment: high-throughput SPR (Carterra LSA), antibody coupled to HC-30M chip, feline IL-5 as analyte
# Experimental: The chip surface was first activated by flowing a freshly prepared 1:1:1 activation mix of 100 mM MES pH 5.5, 100 mM S-NHS, and 400 mM EDC for seven minutes. Antibodies diluted to 10 μg/mL in 10 mM sodium acetate, pH 4.25 buffer, 0.01% Tween were coupled to the chip surface for 10 min using the instrument 96 Multi Flow Channel printhead. The chip surface was quenched by flowing 1 M Ethanolamine for seven minutes, followed by two wash steps of 15 seconds each in 25 mM MES pH 5.5 buffer. Feline IL-5 (Kingfisher Biotech; RP1152F) was used at the following concentrations: 1000, 333.3, 111.1, 37.0, 12.3, 4.1, 1.4, 0.45, and 0.15 nM.
binder,measurement,value
B1,Kd,0.141 nM
